Source: patent publication US20100221257A1 (AstraZeneca / MedImmune, published 2010)

T1: human recombinant IL-1R6/IL1 R rp2/Fc (human, UniProt Q9HB29 20-335, limits assumed)
T1 construct: Bought; also called Human IL1R6Fc; not shown: Fc of the bought fusion protein, not described
T1 sequence (looked up): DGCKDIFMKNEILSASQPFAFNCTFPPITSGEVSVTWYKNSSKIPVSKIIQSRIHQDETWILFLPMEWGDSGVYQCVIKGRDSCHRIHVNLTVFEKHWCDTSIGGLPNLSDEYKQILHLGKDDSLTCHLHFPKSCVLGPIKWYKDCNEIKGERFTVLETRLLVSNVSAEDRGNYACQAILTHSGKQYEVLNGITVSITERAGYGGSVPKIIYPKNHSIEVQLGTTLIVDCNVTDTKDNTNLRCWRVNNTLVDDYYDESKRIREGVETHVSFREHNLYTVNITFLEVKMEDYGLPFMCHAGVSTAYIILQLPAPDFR

T2: cynomolgus IL-1R1, endogenous on CYNOM-K1 cells (cynomolgus monkey, UniProt A0A7N9CMI5 18-569)
T2 sequence: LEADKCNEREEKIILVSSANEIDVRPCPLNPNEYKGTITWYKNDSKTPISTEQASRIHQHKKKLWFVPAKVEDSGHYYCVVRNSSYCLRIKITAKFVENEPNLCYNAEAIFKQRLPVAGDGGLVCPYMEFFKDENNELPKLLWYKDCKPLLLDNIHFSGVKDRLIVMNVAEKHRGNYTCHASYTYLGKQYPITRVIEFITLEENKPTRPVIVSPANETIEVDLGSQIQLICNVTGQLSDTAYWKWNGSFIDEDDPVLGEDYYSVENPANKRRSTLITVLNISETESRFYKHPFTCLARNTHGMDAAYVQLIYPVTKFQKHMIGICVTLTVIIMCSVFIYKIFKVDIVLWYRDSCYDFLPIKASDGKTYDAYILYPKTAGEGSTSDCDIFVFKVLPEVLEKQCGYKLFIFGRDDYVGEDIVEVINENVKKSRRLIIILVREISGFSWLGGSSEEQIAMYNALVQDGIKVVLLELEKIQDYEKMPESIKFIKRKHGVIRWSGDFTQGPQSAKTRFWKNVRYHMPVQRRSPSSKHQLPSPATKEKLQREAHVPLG

T3: human IL-1R1, endogenous on human cells (HeLa cells; whole blood) (human, UniProt P14778 18-569)
T3 sequence (looked up): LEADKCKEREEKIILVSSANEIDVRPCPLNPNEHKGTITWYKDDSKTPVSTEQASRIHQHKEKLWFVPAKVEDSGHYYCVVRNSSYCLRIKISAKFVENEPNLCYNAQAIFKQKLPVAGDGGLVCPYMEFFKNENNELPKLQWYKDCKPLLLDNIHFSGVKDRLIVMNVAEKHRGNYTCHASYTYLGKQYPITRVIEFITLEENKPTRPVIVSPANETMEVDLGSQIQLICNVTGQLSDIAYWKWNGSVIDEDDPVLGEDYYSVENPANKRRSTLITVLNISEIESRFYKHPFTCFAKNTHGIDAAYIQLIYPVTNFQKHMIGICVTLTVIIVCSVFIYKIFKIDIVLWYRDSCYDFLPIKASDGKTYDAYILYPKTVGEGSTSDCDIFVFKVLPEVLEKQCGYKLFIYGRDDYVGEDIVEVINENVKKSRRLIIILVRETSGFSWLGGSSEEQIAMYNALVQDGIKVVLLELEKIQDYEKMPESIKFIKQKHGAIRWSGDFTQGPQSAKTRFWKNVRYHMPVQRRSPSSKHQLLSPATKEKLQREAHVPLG


Experiments:
[1] = biological target: T4, human histidine tagged (HIS) IL1RFc fusion protein (human); test: HTRF receptor-ligand assay, IgG inhibiting HIS FLAG IL-1Ra binding to cryptate labelled human HIS IL1RFc
T4 construct: Biotinylated or cryptate labelled in some assays; also called human HIS IL1RFc; huIL-1R1-Fc
Description: The ability of lead antibodies to inhibit IL-1Ra to IL-1R1 was assessed in a receptor-ligand binding HTRF® (Homogeneous Time-Resolved Fluorescence) assay format for inhibition of HIS FLAG tagged human IL1Ra (In house, E. Coli expressed; HIS FLAG IL-1RA) binding to human histidine tagged (HIS) IL1RFc fusion protein (in house), as described in the Materials and methods section.
A titration of inhibitor was used in order to establish the clone potency as measured by IC₅₀ values in the assay. All dilutions were carried out in assay buffer as for ligand binding assay above. 5 μl of a titration of inhibitor was added to a 384 well low volume assay plate (Costar 3676). This was then followed by addition of 0.4 nM cryptate labelled HIS IL1RFc. Assay plates were then sealed and incubated at room temperature in dark for 1 hour.

[2] = biological target: T1, human recombinant IL-1R6/IL1 R rp2/Fc; test: DELFIA epitope competition; no inhibition of biotinylated huIL-1RFc binding to the adsorbed IgG
Description: Titrations of non biotinylated purified human recombinant IL1sRII (R&D Systems), human recombinant IL-1R6/IL1 R rpt/Fc (R&D Systems), human recombinant IL18R alpha/IL-1 R5/Fc (R&D systems) and recombinant human IL-1 R4 (ST2)/Fc (R&D systems) were tested in each assay to establish the potency for each structurally related family member, as measured by IC₅₀ values in the assay.
Purified IgG were adsorbed onto 96-well Maxisorp microtitre plates (Nunc) in PBS at a concentration which gave a significant signal when biotinylated human HIS IL1RFc was added at approximately its estimated KD for that particular IgG. Excess IgG was washed away with PBS-Tween (0.1% v/v) and the wells were blocked with non-fat dried milk in PBS (3% w/v) for 1 h. […] Non-biotinylated human HIS IL1RFc was included as a positive control. 25 μl of this dilution series was added to the blocked IgG assay plate.
25 μl of 1.4 nM biotinylated human HIS IL1RFc was added to the assay plate. The plate was then sealed and incubated at room temperature for 2 h. Unbound antigen was removed by washing with PBS-Tween (0.1% v/v), while the remaining biotinylated human IL1RFc was detected by streptavidin-Europium3+ conjugate (DELFIA® detection, PerkinElmer). Time-resolved fluorescence was measured at 620 nm on an EnVision plate reader (PerkinElmer). Fluorescence data was plotted as europium counts. IC₅₀ values were determined using GraphPad Prism software by curve fitting using a four-parameter logistic equation (Equation 3).

[3] = biological target: T2, cynomolgus IL-1R1, endogenous on …; test: cell-based or functional assay
[4] = biological target: T3, human IL-1R1, endogenous on human cells …; test: cell-based or functional assay

IC50 [1] | binding result [2] | IC50, inhibition of IL-1β induced IL-8 release from CYNOM-K1 cells, experiment 1 [3] | IC50, inhibition of IL-1β induced IL-8 release from CYNOM-K1 cells, experiment 2 [3] | IC50, inhibition of IL-1 alpha induced IL-8 release in HeLa cells (GL IgG2) [4] | IC50, inhibition of IL-1 beta induced IL-8 release in HeLa cells (GL IgG2) [4] | Binder
0.181 nM | no binding | 0.8 nM | 0.6 nM | 0.0031 nM | 0.0119 nM | Antibody 6GL IgG2 (antibody, V domains shown, Germlined IgG2, lambda light chain; also called Antibody 6 IgG2; 28PL GL) VH: not shown VL: QSVLTQPPSVSGAPGQRVTISCTGSSSNIGAGYDVHWYQQLPGTAPKLLIYGDTHRPSGVPDRFSGSKSGTSASLAITGLQAEDEADYYCQSYDTVRLHHVFGGGTKLTVL
0.323 nM | no binding | 0.9 nM | 0.7 nM | 0.0138 nM | 0.0242 nM | Antibody 10GL IgG2 (antibody, V domains shown, Germlined IgG2, lambda light chain) VH: not shown VL: QSVLTQPPSVSGAPGQRVTISCTGSSSNIGAGYDVHWYQQLPGTAPKLLIYGDTHRPSGVPDRFSGSKSGTSASLAITGLQAEDEADYYCQSYDTRADDAHFGGGTKLTVL
0.363 nM | no binding | 4.2 nM | 2.5 nM | 0.197 nM | 0.0419 nM | Antibody 8GL IgG2 (antibody, V domains shown, Germlined IgG2, lambda light chain) VH: not shown VL: QSVLTQPPSVSGAPGQRVTISCTGSSSNIGAGYDVHWYQQLPGTAPKLLIYGDTHRPSGVPDRFSGSKSGTSASLAITGLQAEDEADYYCQSYDTHLVAHVFGGGTKLTVL
